Measured values from article PMC8216470, “The structure of the mouse ADAT2/ADAT3 complex reveals the molecular basis for mammalian tRNA wobble adenosine-to-inosine deamination” (Nucleic Acids Research, 2021).

Target: the molecule itself
Assay: SEC; oligomeric state of the protein produced alone, as assessed by size exclusion chromatography

B1: Escherichia coli TadA (enzyme, E. coli, UniProt P68398 1-167, looked up)
chain: MSEVEFSHEYWMRHALTLAKRAWDEREVPVGAVLVHNNRVIGEGWNRPIGRHDPTAHAEIMALRQGGLVMQNYRLIDATLYVTLEPCVMCAGAMIHSRIGRVVFGARDAKTGAAGSLMDVLHHPGMNHRVEITEGILADECAALLSDFFRMRRQEIKAQKKAQSSTD
notes: tRNA-specific adenosine deaminase TadA, Escherichia coli; also called E. coli TadA; source: produced and purified using the same protocol as for the ADAT complex (E. coli BL21(DE3); Talon, 3C protease, HiTrap Q, Superdex 200)
stoichiometry N: 2

B2: mouse ADAT2 (enzyme, UniProt Q6P6J0 1-191, looked up)
chain: MEEKVESTTTPDGPCVVSVQETEKWMEEAMRMAKEALENIEVPVGCLMVYNNEVVGKGRNEVNQTKNATRHAEMVAIDQVLDWCHQHGQSPSTVFEHTVLYVTVEPCIMCAAALRLMKIPLVVYGCQNERFGGCGSVLNIASADLPNTGRPFQCIPGYRAEEAVELLKTFYKQENPNAPKSKVRKKDCQKS
notes: tRNA-specific adenosine deaminase 2 (ADAT2), mouse, full-length gene amplified from E16.5 cortices, NCBI NM_025748.4; cloned in pnCS, which codes for no fusion tag; residues 11-176 seen in the electron density; the untagged pnCS construct is told only for the co-expression; also called A2; ADAT2/ADAT2 (homodimer, when produced alone); source: E. coli BL21(DE3), co-expressed with ADAT3, purified …
stoichiometry N: 2
